Assay results as given in patent US20210179686A1 (Memorial Sloan Kettering, published 2021).
Numbering of substitutions follows the chain as printed.

Tests used:
[1] = target: T1, R2-EE12RR345L CD28-9c delta; assay: double-transduced C1498 cells sorted with CD34 beads by the captured Q2 zipper (FIG. 19)
T1 construct: also called tandem circular CD20 mimotope-tagged capture leucine zipper
T1 chain: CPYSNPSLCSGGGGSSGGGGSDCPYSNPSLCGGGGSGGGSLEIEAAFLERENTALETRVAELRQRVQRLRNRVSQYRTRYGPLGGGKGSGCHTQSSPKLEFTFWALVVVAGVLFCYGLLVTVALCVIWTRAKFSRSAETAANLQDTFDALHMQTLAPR
Procedure: Next, the cells were magnetically sorted with CD34 beads. Subsequently, the cells were incubated with antibodies in the presence of complement.

[2] = target: T2, 1N mutant: E1R2EE345L linker EE12RR345L membrane-bound construct; assay: FLAG staining of co-transduced C1498 cells, flow cytometry (FIG. 20)
T2 chain: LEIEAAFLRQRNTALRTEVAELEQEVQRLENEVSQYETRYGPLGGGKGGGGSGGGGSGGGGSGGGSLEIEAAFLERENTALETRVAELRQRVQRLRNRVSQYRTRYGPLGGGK
Source text: (§1) C1498 cells were co-transduced with the FLAG-RR12EE345L GFP vector and one of the six mutants as part of RR12EE345L linker EE12RR345L BFP vector constructs. […] Thus, mutating the […] leucine zipper at “g” position residues to include repulsive amino acid interactions can reduce the degree of blocking by the linked […]-based mutant leucine zipper.

[3] = target: T3, 3C mutant: RR12345L linker EE12RR345L membrane-bound construct; assay: as above
T3 chain: T2 chain with E4R, E18R, E25R, E32R
Source text: as §1

[4] = target: T4, 2M mutant: RR1234E5L linker EE12RR345L membrane-bound construct; assay: as above
T4 chain: T2 chain with E4R, E18R, E25R
Source text: as §1

[5] = target: T5, 2N mutant: EE12345L linker EE12RR345L membrane-bound construct; assay: as above
T5 chain: T2 chain with R11E
Source text: as §1

[6] = target: T6, 3N mutant: EE12R3E45L linker EE12RR345L membrane-bound construct; assay: as above
T6 chain: T2 chain with R11E, E18R
Source text: as §1

[7] = target: T7, 1M mutant: RR123E45L linker EE12RR345L membrane-bound construct; assay: as above
T7 chain: T2 chain with E4R, E18R
Source text: as §1

[8] = target: T8, RR12EE345L linker EE12RR345L CD80 (mouse (CD80 part, SEQ ID NO: 111)); assay: co-transduced T cells sorted with anti-FLAG magnetic beads (FIG. 21A)
T8 construct: left out; Expressed on T cells from a vector that also carries the CD20-streptag-CAR; also called CD80 functionalized leucine zipper
T8 chain: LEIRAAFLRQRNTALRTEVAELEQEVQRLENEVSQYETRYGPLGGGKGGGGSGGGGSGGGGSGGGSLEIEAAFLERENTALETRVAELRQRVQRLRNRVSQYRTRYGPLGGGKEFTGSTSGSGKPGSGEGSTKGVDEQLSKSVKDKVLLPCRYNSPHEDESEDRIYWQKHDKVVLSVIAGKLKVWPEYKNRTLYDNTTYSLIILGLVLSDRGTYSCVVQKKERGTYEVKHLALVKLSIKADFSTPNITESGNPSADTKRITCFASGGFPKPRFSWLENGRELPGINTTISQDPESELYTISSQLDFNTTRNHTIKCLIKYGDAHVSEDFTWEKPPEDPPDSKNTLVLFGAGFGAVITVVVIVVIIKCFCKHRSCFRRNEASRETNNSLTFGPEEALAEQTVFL
Source text: T cells were transduced with vectors encoding (a) FLAG-RR12EE345L iCaspase9 CD19-myc-CAR and (b) RR12EE345L linker EE12RR345L CD80 CD20-streptag-CAR. Next, cells were magnetically sorted with anti-FLAG magnetic beads.

Measured: binding result

B1: Q2-RR12EE345L (designed binder)
chain: GSGELPTQGTFSNVSTNVSGGGGSGGGSELPTQGTFSNVSTNVSGGGGSGGGSALGLEIRAAFLRQRNTALRTEVAELEQEVQRLENEVSQYETRYGPLGGGK
binds: [1]

B2: FLAG-RR12EE345L leucine zipper (secreted, affinity-tagged) (designed binder)
chain: DYKDDDDKLEIRAAFLRQRNTALRTEVAELEQEVQRLENEVSQYETRYGPLGGGK
notes: also called RR12EE345L-FLAG
not listed: [1]
binds: all other assays above
